IntAct's records for PubMed 21317894

B1: Complement factor H (Homo sapiens), P08603 (parent)
chain: MRLLAKIICLMLWAICVAEDCNELPPRRNTEILTGSWSDQTYPEGTQAIYKCRPGYRSLGNVIMVCRKGEWVALNPLRKCQKRPCGHPGDTPFGTFTLTGGNVFEYGVKAVYTCNEGYQLLGEINYRECDTDGWTNDIPICEVVKCLPVTAPENGKIVSSAMEPDREYHFGQAVRFVCNSGYKIEGDEEMHCSDDGFWSKEKPKCVEISCKSPDVINGSPISQKIIYKENERFQYKCNMGYEYSERGDAVCTESGWRPLPSCEEKSCDNPYIPNGDYSPLRIKHRTGDEITYQCRNGFYPATRGNTAKCTSTGWIPAPRCTLKPCDYPDIKHGGLYHENMRRPYFPVAVGKYYSYYCDEHFETPSGSYWDHIHCTQDGWSPAVPCLRKCYFPYLENGYNQNYGRKFVQGKSIDVACHPGYALPKAQTTVTCMENGWSPTPRCIRVKTCSKSSIDIENGFISESQYTYALKEKAKYQCKLGYVTADGETSGSITCGKDGWSAQPTCIKSCDIPVFMNARTKNDFTWFKLNDTLDYECHDGYESNTGSTTGSIVCGYNGWSDLPICYERECELPKIDVHLVPDRKKDQYKVGEVLKFSCKPGFTIVGPNSVQCYHFGLSPDLPICKEQVQSCGPPPELLNGNVKEKTKEEYGHSEVVEYYCNPRFLMKGPNKIQCVDGEWTTLPVCIVEESTCGDIPELEHGWAQLSSPPYYYGDSVEFNCSESFTMIGHRSITCIHGVWTQLPQCVAIDKLKKCKSSNLIILEEHLKNKKEFDHNSNIRYRCRGKEGWIHTVCINGRWDPEVNCSMAQIQLCPPPPQIPNSHNMTTTLNYRDGEKVSVLCQENYLIQEGEEITCKDGRWQSIPLCVEKIPCSQPPQIEHGTINSSRSSQESYAHGTKLSYTCEGGFRISEENETTCYMGKWSSPPQCEGLPCKSPPEISHGVVAHMSDSYQYGEEVTYKCFEGFGIDGPAIAKCLGEKWSHPPSCIKTDCLSLPSFENAIPMGEKKDVYKAGEQVTYTCATYYKMDGASNVTCINSRWTGRPTCRDTSCVNPPTVQNAYIVSRQMSKYPSGERVRYQCRSPYEMFGDEEVMCLNGNWTEPPQCKDSTGKCGPPPPIDNGDITSFPLSVYAPASSVEYQCQNLYQLEGNKRITCRNGQWSEPPKCLHPCVISREIMENYNIALRWTAKQKLYSRTGESVEFVCKRGYRLSSRSHTLRTTCWDGKLEYPTCAKR

Variants of: B1
Conditions: with co3_human C3, P01024
Chain of co3_human C3, P01024 (P01024 whole entry): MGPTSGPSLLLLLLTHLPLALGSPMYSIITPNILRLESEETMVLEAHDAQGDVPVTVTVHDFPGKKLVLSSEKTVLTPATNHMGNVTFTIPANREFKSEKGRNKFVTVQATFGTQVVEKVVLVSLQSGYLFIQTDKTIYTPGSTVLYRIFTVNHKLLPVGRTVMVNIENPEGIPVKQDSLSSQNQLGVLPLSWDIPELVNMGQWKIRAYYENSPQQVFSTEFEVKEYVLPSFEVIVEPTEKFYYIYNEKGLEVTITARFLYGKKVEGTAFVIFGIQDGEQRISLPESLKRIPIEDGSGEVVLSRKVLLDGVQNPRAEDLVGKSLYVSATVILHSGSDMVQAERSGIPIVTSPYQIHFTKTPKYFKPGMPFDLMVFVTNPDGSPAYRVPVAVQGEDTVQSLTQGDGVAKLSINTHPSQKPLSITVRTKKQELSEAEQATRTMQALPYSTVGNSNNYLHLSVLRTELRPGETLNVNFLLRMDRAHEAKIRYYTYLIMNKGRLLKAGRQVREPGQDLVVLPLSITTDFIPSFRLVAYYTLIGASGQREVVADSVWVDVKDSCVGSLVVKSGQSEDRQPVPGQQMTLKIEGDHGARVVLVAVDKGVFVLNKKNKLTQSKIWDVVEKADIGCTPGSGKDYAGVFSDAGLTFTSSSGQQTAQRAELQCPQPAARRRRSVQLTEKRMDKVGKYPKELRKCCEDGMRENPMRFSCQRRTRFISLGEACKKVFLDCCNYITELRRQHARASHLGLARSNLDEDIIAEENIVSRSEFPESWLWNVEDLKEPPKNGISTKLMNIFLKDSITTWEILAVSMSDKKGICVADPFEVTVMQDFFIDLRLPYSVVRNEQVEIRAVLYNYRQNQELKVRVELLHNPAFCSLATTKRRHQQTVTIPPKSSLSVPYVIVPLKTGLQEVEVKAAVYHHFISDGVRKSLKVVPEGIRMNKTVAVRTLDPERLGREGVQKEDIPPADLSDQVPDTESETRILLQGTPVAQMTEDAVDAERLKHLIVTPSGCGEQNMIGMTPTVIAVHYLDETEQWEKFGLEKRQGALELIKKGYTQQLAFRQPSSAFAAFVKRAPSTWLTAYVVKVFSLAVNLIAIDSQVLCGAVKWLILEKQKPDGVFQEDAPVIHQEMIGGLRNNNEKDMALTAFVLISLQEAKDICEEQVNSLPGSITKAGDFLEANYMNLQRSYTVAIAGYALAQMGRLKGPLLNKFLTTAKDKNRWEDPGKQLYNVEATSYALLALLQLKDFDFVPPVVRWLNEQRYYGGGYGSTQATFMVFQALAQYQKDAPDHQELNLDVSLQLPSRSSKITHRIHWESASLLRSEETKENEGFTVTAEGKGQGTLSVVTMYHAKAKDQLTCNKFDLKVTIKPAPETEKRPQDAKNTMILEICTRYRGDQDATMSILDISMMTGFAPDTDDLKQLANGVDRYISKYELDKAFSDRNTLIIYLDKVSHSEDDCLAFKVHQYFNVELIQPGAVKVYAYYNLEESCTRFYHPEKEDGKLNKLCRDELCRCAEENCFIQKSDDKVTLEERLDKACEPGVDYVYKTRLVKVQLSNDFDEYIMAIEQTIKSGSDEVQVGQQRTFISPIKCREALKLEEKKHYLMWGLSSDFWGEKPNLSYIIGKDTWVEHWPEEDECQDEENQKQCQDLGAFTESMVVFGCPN

Row | Variant | effect of a mutation on the interaction
1 | D1119G | disrupting interaction
2 | R1182S | decreasing interaction

Other lines, results leading:

Row | effect of a mutation on the interaction | Variant
3 | decreasing interaction | R1215Q
4 | decreasing interaction | R1203S
